From publication PMC5141469 (Scientific Reports, 2016)

T1: YajC (E. coli, UniProt P0ADZ7 1-110)
T1 construct: YajC of E. coli; also called subunit of SecDF-YajC; subunit of the holo-translocon (HTL)
T1 sequence (looked up): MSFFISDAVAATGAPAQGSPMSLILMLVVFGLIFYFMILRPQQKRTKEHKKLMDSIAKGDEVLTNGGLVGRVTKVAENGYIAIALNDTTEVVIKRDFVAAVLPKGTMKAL

B1: SecY (natural protein, E. coli, UniProt P0AGA2 1-443, looked up)
chain: MAKQPGLDFQSAKGGLGELKRRLLFVIGALIVFRIGSFIPIPGIDAAVLAKLLEQQRGTIIEMFNMFSGGALSRASIFALGIMPYISASIIIQLLTVVHPTLAEIKKEGESGRRKISQYTRYGTLVLAIFQSIGIATGLPNMPGMQGLVINPGFAFYFTAVVSLVTGTMFLMWLGEQITERGIGNGISIIIFAGIVAGLPPAIAHTIEQARQGDLHFLVLLLVAVLVFAVTFFVVFVERGQRRIVVNYAKRQQGRRVYAAQSTHLPLKVNMAGVIPAIFASSIILFPATIASWFGGGTGWNWLTTISLYLQPGQPLYVLLYASAIIFFCFFYTALVFNPRETADNLKKSGAFVPGIRPGEQTAKYIDKVMTRLTLVGALYITFICLIPEFMRDAMKVPFYFGGTSLLIVVVVIMDFMAQVQTLMMSSQYESALKKANLKGYGR
notes: SecY, subunit of the E. coli SecYEG protein-conducting channel; also called subunit of SecYEG; subunit of the holo-translocon (HTL)
B2: SecG (natural protein, E. coli, UniProt P0AG99 1-110, looked up)
chain: MYEALLVVFLIVAIGLVGLIMLQQGKGADMGASFGAGASATLFGSSGSGNFMTRMTALLATLFFIISLVLGNINSNKTNKGSEWENLSAPAKTEQTQPAAPAKPTSDIPN
notes: SecG, subunit of the E. coli SecYEG protein-conducting channel; also called subunit of SecYEG; subunit of the holo-translocon (HTL)
B3: SecF (natural protein, E. coli, UniProt P0AG93 1-323, looked up)
chain: MAQEYTVEQLNHGRKVYDFMRWDYWAFGISGLLLIAAIVIMGVRGFNWGLDFTGGTVIEITLEKPAEIDVMRDALQKAGFEEPMLQNFGSSHDIMVRMPPAEGETGGQVLGSQVLKVINESTNQNAAVKRIEFVGPSVGADLAQTGAMALMAALLSILVYVGFRFEWRLAAGVVIALAHDVIITLGILSLFHIEIDLTIVASLMSVIGYSLNDSIVVSDRIRENFRKIRRGTPYEIFNVSLTQTLHRTLITSGTTLMVILMLYLFGGPVLEGFSLTMLIGVSIGTASSIYVASALALKLGMKREHMLQQKVEKEGADQPSILP
notes: SecF of E. coli; also called subunit of SecDF; subunit of the holo-translocon (HTL)
B4: SecD (natural protein, E. coli, UniProt P0AG90 1-615, looked up)
chain: MLNRYPLWKYVMLIVVIVIGLLYALPNLFGEDPAVQITGARGVAASEQTLIQVQKTLQEEKITAKSVALEEGAILARFDSTDTQLRAREALMGVMGDKYVVALNLAPATPRWLAAIHAEPMKLGLDLRGGVHFLMEVDMDTALGKLQEQNIDSLRSDLREKGIPYTTVRKENNYGLSITFRDAKARDEAIAYLSKRHPDLVISSQGSNQLRAVMSDARLSEAREYAVQQNINILRNRVNQLGVAEPVVQRQGADRIVVELPGIQDTARAKEILGATATLEFRLVNTNVDQAAAASGRVPGDSEVKQTREGQPVVLYKRVILTGDHITDSTSSQDEYNQPQVNISLDSAGGNIMSNFTKDNIGKPMATLFVEYKDSGKKDANGRAVLVKQEEVINIANIQSRLGNSFRITGINNPNEARQLSLLLRAGALIAPIQIVEERTIGPTLGMQNIEQGLEACLAGLLVSILFMIIFYKKFGLIATSALIANLILIVGIMSLLPGATLSMPGIAGIVLTLAVAVDANVLINERIKEELSNGRTVQQAIDEGYRGAFSSIFDANITTLIKVIILYAVGTGAIKGFAITTGIGVATSMFTAIVGTRAIVNLLYGGKRVKKLSI
notes: SecD of E. coli; also called subunit of SecDF; subunit of the holo-translocon (HTL); not shown: His6, C-terminal, kept
B5: YidC (natural protein, E. coli, UniProt P25714 1-548, looked up)
chain: MDSQRNLLVIALLFVSFMIWQAWEQDKNPQPQAQQTTQTTTTAAGSAADQGVPASGQGKLISVKTDVLDLTINTRGGDVEQALLPAYPKELNSTQPFQLLETSPQFIYQAQSGLTGRDGPDNPANGPRPLYNVEKDAYVLAEGQNELQVPMTYTDAAGNTFTKTFVLKRGDYAVNVNYNVQNAGEKPLEISSFGQLKQSITLPPHLDTGSSNFALHTFRGAAYSTPDEKYEKYKFDTIADNENLNISSKGGWVAMLQQYFATAWIPHNDGTNNFYTANLGNGIAAIGYKSQPVLVQPGQTGAMNSTLWVGPEIQDKMAAVAPHLDLTVDYGWLWFISQPLFKLLKWIHSFVGNWGFSIIIITFIVRGIMYPLTKAQYTSMAKMRMLQPKIQAMRERLGDDKQRISQEMMALYKAEKVNPLGGCFPLLIQMPIFLALYYMLMGSVELRQAPFALWIHDLSAQDPYYILPILMGVTMFFIQKMSPTTVTDPMQQKIMTFMPVIFTVFFLWFPSGLVLYYIVSNLVTIIQQQLIYRGLEKRGLHSREKKKS
notes: YidC of E. coli; also called membrane 'insertase' YidC; subunit of the holo-translocon (HTL); not shown: His6, C-terminal, kept
B6: SecE (natural protein, E. coli, UniProt P0AG96 1-127, looked up)
chain: MSANTEAQGSGRGLEAMKWVVVVALLLVAIVGNYLYRDIMLPLRALAVVILIAAAGGVALLTTKGKATVAFAREARTEVRKVIWPTRQETLHTTLIVAAVTAVMSLILWGLDGILVRLVSFITGLRF
notes: SecE, subunit of the E. coli SecYEG protein-conducting channel; also called subunit of SecYEG; subunit of the holo-translocon (HTL); not shown: His6, N-terminal, kept

Biological target: T1, YajC
Test: SEC + AUC; co-purified detergent-solubilised (DDM) HTL; ultracentrifugation 16 h at 35,000 rpm, 10 °C, absorbance at 280 nm and interference
Conditions: both partners purified

stoichiometry N | Binder
1 | B1
1 | B2
1 | B3
1 | B4
1 | B5
1 | B6
